Experimental data published in patent US20110135657A1 (published 2011).
Changes are numbered by the printed parent chain.

B1: 18B11.1 (antibody, human IgG2, kappa, V domains shown)
VH: EVQLVESGGGLVKPGGSLRLSCAASGFTFSDAWMSWVRQAPGKGLEWVGRIKSKTDGGTTDYAAPVKGRFTISRDDSKNTLYLQMNSLKTEDTAVYFCTSTYSSGWYVWDYYGMDVWGQGTTVTVSS
VL: DIVMTQSPLSLPVTPGEPASISCRSSQSLLYYNGFTYLDWFLQKPGQSPHLLIYLGSNRASGVPDRFSGSVSGTDFTLKISRVEAEDVGVYYCMQSLQTPFTFGPGTKVDIKR
notes: fully human monoclonal antibody; full chains H11/L10
B2: 20D4 (antibody, human IgG2, kappa, V domains shown)
VH: QVQLVQSGAEVKKPGASVKVSCKVSGYTLTDLSMHWVRQAPGKGLEWMGGFDPEDGETIYAQKFQGRITMTEDTSTDTAYMELSSLRSEDTAVYYCASIVVVPAAIQSYYYYYGMGVWGQGTTVTVSS
VL: DIQLTQSPSSLSASIGDRVTITCRASQDIRYDLGWYQQKPGKAPKRLIYAASSLQSGVPSRFSGSGSGTEFTLTVSSLQPEDFATYYCLQHNSYPLTFGGGTKVEIER
notes: fully human monoclonal antibody; full chains H12/L12; also called 20D4.1
B3: 12E4 (antibody, human IgG2, kappa, V domains shown)
VH: EVQLLESGGGLVQPGGSLRLSCAASRFTFSTYAMSWVRQAPGKGLEWVSGISGSGVSTYYADSVKGRFTISRDNSKNTLYLQMNSLRAEDTAVYYCAKSLIVVIVYALDYWGQGTLVTVSS
VL: EIVLTQSPGTLSLSPGERATLSCRASQNFDSNYLAWYQQKPGQAPRLLIYGASSRATGIPDNFSGSGSGTDFTLTISRLEPEDFAMYYCQQYGSSPLTFGGGTKVEIKR
notes: fully human monoclonal antibody; full chains H8/L7; also called 12E4.1
B4: 26H11 (antibody, human IgG2, kappa, V domains shown)
VH: B3 VH with S17Y, R26G, G50A, Y59N, I104M, A107V
VL: B3 VL with N28S, F29V, D30S, S31G, N62R, T103S
notes: fully human monoclonal antibody; full chains H7/L6; also called 26H11.1
B5: 22H5 (antibody, human IgG2, lambda, V domains shown)
VH: QVTLKESGPVLVKPTETLTLTCTVSGFSLSNARMGVSWIRQPPGKALEWLAHIFSNDEKSYSTSLKSRLTISKDTSKSQVVLTMTNMDPVDTATYYCARILLVGAYYYCGMDVWGQGTTVTVSS
VL: SYVLTQPPSVSVAPGQTARITCGGNNIGSQSVHWYQQKPGQAPVLVVYDDSDRPSGIPERFSGSNSGNTATLTISRVEAGDEADYYCQVWDNTSDHVVFGGGTKLTVLG
notes: fully human monoclonal antibody; full chains H2/L2; also called 22H5 (WT)
B6: 22H5 variant, light chain N92Q (antibody, human IgG2, lambda, V domains shown)
VH: B5 VH
VL: B5 VL with N92Q
notes: variant chain entry already carries the change; also called #7, P60897.3
B7: 22H5 variant, light chain S94A (antibody, human IgG2, lambda, V domains shown)
VH: B5 VH
VL: B5 VL with S94A
notes: variant chain entry already carries the change; also called #6, P60898.3
B8: 22H5 variant, heavy chain C109S (antibody, human IgG2, lambda, V domains shown)
VH: B5 VH with C109S
VL: B5 VL
notes: variant chain entry already carries the change; also called #23, P60899.2
B9: 17D8 (antibody, human IgG2, kappa, V domains shown)
VH: B3 VH with S17Y, R26G, G50A, I104M, A107V
VL: B3 VL with N28S, F29V, D30S, S31G, N62R, M86V, S95A

These binders were tested against T1, denatured human FGFR1c (lysate of CHO cells stably expressing FGF21 receptor, non-reducing SDS-PAGE, blotted) (human, UniProt P11362 22-822) (assay: Western blot of CHO/FGF21 receptor lysate, non-reducing SDS-PAGE (denatured protein)).
T1 construct: DENATURED protein on a Western blot, not the native fold; also called denatured FGFR1c; denatured receptor proteins
T1 sequence (P11362 22-822 limits assumed): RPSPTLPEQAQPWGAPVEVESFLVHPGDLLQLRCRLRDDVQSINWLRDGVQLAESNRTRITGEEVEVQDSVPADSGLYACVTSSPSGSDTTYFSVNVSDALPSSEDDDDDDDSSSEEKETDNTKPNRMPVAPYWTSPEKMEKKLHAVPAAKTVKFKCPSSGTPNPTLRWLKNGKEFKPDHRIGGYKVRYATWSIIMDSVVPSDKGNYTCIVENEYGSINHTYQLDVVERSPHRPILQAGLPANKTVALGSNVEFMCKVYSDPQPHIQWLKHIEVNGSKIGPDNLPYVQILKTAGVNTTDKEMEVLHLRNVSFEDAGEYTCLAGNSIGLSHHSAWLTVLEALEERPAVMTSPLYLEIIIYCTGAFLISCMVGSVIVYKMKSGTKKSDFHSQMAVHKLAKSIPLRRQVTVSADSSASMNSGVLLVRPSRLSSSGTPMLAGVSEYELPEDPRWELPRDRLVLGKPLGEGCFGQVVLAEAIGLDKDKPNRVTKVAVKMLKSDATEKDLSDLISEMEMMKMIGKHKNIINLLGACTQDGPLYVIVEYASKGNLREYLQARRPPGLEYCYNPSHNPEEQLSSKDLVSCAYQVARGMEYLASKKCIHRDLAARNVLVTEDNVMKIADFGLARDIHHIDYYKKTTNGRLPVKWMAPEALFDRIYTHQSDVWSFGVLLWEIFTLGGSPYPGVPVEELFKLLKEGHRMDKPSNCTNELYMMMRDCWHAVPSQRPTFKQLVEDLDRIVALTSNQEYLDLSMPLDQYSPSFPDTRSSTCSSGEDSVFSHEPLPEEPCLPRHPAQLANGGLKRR
Experimental: 20 μl of cell lysate was loaded per lane on adjacent lanes separated with a molecular weight marker lane on 4-20% SDS-PAGE gels. Following electrophoresis, the gels were blotted onto 0.2μ nitrocellulose filters. The blots were treated with Tris-buffered saline/Triton-X (TBST) plus 5% non-fat milk (blocking buffer) for 30 minutes. The blots were then cut along the molecular weight marker lanes. […] Blots were incubated with the antibodies for one hour at room temperature, followed by three washes with TBST+1% milk. The blots were then probed with anti-human or anti-goat IgG-HRP secondary antibodies for 20 min. Blots were given three 15 min. washes with TBST followed by treatment with Pierce Supersignal West Dura developing reagent (1 min.) and exposure to Kodak Biomax X-ray film.
B1: no binding. B2: no binding. B3: no binding. B4: no binding.

What follows are binders tested against T2, human FGF21 receptor (FGF21R): full length human FGFR1c and full length human β-Klotho co-expressed at the … (human, UniProt P11362 22-822; Q86Z14 53-1044) (assay: cell-based or functional assay).
With B5 the “EC50 (nM), Erk-phosphorylation, human adipocyte assay” value (“EC50 (nM), Erk-phosphorylation” below) was 2.27 nM. In the case of B6, the “EC50 (nM), Erk-phosphorylation” value is reported as 3.33 nM. In the case of B7, the “EC50 (nM), Erk-phosphorylation” value is reported as 1.98 nM.

These binders were tested against T3, His-tagged human recombinant β-Klotho (human, UniProt Q86Z14 53-997, limits assumed) (assay: Biacore, 100 nM mAb over His-tagged human β-Klotho captured on anti-His antibody).
T3 construct: also called β-Klotho captured on anti-His; human β-Klotho; not shown: His tag
Experimental: Briefly, mouse anti-His antibody (Qiagen, Valencia, Calif.) was immobilized on a CM5 chip using amine coupling reagents (General Electronics, Piscataway, N.J.). His-tagged human recombinant β-Klotho was captured on the second flow cell to ˜100RU. The first flow cell was used as a background control. 100 nM mAbs were diluted in PBS plus 0.1 mg/ml BSA, 0.005% P20 and injected over the β-Klotho captured on anti-His antibody surface. For kinetic measurement, 0.78-100 nM mAbs diluted in PBS plus 0.1 mg/ml BSA, 0.005% P20 were injected over the β-Klotho surface.
Binder B5 has a koff of 0.00031 s⁻¹. B8 showed a koff of 0.0003 s⁻¹. B6 was tested, and the koff was 0.00052 s⁻¹. B7 gave a koff of 0.00035 s⁻¹.

What follows are binders tested against T4, soluble human FGFR1c/β-Klotho ECD-Fc complex (human) (assay: Biacore, antibody immobilized on the sensor chip).
T4 construct: Both entries start at residue 1 of the precursors; also called soluble FGF21R; soluble FGF21R-Fc
T4 sequence (chain, as listed by the source limits assumed, chain 1 of 2): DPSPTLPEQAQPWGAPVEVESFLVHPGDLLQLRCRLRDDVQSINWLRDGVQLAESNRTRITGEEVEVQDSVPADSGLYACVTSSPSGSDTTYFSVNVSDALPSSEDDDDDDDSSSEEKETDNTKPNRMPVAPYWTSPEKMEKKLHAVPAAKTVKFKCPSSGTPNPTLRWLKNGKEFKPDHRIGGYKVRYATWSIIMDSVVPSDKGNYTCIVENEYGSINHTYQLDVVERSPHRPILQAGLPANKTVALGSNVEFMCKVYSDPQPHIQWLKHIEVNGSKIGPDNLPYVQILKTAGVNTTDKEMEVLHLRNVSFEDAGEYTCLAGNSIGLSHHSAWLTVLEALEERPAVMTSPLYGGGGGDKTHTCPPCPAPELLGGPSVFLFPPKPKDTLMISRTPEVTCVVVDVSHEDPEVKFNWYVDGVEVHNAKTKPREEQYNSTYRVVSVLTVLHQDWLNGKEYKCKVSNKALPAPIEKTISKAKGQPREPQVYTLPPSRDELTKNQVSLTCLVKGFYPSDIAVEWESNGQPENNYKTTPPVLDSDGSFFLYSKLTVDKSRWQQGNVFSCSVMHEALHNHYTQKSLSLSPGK
T4 sequence (chain, as listed by the source limits assumed, chain 2 of 2): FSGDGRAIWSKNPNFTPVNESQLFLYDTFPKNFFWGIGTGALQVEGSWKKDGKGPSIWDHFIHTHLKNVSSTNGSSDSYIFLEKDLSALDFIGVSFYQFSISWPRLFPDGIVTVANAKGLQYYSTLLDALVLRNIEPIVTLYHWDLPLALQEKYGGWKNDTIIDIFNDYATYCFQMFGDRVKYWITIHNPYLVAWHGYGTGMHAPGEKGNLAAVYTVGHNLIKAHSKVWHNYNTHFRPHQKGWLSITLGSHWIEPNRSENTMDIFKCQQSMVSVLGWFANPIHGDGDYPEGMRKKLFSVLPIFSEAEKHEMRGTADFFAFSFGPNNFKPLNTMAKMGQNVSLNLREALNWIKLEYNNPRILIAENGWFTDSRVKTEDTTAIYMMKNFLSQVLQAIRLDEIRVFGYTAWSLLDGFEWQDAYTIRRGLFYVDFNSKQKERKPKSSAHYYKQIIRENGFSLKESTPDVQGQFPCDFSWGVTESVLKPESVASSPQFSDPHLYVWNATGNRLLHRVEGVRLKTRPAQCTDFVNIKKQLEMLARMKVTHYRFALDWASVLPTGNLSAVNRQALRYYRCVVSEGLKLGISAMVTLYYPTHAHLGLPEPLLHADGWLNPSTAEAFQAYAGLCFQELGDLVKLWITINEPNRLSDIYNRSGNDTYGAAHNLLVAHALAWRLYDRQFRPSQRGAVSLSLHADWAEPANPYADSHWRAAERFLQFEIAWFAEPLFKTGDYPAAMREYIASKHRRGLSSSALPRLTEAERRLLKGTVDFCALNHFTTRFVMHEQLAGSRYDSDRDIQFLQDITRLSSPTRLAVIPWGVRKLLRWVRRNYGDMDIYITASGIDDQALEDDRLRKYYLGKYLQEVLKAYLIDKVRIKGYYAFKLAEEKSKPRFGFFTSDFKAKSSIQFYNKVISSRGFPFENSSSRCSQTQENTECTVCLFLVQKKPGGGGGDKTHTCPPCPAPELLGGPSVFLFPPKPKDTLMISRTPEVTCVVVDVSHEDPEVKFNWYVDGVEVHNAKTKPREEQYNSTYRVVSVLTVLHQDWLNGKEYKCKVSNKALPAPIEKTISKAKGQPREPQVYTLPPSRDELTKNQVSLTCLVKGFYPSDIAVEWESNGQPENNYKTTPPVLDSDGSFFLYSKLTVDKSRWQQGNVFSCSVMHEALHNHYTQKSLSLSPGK
Text: (§1) Soluble human FGFR1c/β-Klotho ECD-Fc complex or β-Klotho was then captured on the immobilized antibody surfaces.
B9: binds.

The binders below were run against T5, soluble human β-Klotho (Biacore, Example 8) (human, UniProt Q86Z14 53-996, limits assumed) (assay: Biacore competition binning; test antibody injected over soluble receptor captured on immobilized 24H11, 17D8 or 1A2.1).
T5 construct: also called soluble β-Klotho
Text: as §1
B2: binds. B3: binds. B9: binds. B4: binds.

Target: T2, human FGF21 receptor (FGF21R): full …
Assay: cell-based or functional assay
Remark: another data set of the same source
For B2, the “Activity (%) = % of FGF21 activity, luciferase reporter, AM-1/D FGFR1c+β-Klotho Luc clone; antibody combined with isotype IgG2k control” value (“Activity (%) = % of FGF21 activity” below) was 12.5 % of FGF21 activity. For B3, the “Activity (%) = % of FGF21 activity” value was 25.4 % of FGF21 activity. B4 was tested, and the “Activity (%) = % of FGF21 activity” value was 17.9 % of FGF21 activity.
